Experimental findings from patent publication US20130053541A1, “METHODS FOR DISCOVERING MOLECULES THAT BIND TO PROTEINS” (LYNNTECH, INC., priority 2011, published 2013) are described below.

T1: native human ESRRG protein (Estrogen-receptor related receptor gamma) (human, UniProt P62508 229-458, limits assumed)
T1 construct: the screened protein is called 'native human ESRRG protein'; also called ESSRG; ERRγ
T1 sequence (looked up): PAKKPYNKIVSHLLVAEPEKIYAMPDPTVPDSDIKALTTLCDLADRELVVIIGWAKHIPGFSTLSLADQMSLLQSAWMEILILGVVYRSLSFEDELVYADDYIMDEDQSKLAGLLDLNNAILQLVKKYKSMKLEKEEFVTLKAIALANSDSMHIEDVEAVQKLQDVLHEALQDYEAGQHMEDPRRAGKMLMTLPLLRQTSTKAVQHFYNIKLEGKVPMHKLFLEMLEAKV

B1: TGKLKQDG (peptide)
peptide: Ac-TGKLKQDG
B2: NLLLKHPD (peptide)
peptide: Ac-NLLLKHPD
B3: FFKGHFKF (peptide)
peptide: Ac-FFKGHFKF
B4: HDNMYLNE (peptide)
peptide: Ac-HDNMYLNE
B5: DINFSLGI (peptide)
peptide: Ac-DINFSLGI
B6: HYKLKQHE (peptide)
peptide: Ac-HYKLKQHE
B7: NNNFSLHM (peptide)
peptide: Ac-NNNFSLHM
B8: EDSYPRDG (peptide)
peptide: Ac-EDSYPRDG
B9: WIKLKQND (peptide)
peptide: Ac-WIKLKQND
B10: WANYLLPP (peptide)
peptide: Ac-WANYLLPP
B11: NFNYLLPH (peptide)
peptide: Ac-NFNYLLPH
B12: LFLLQQDD (peptide)
peptide: Ac-LFLLQQDD
B13: HLKLKQEN (peptide)
peptide: Ac-HLKLKQEN
B14: WNSYPRND (peptide)
peptide: Ac-WNSYPRND
B15: PWKLKQDP (peptide)
peptide: Ac-PWKLKQDP
B16: LILLQQLD (peptide)
peptide: Ac-LILLQQLD
B17: HRSYPRRG (peptide)
peptide: Ac-HRSYPRRG
B18: PDSYPRWG (peptide)
peptide: Ac-PDSYPRWG
B19: LFKLKQDG (peptide)
peptide: Ac-LFKLKQDG
B20: DNNYLLLL (peptide)
peptide: Ac-DNNYLLLL

Where no end group is shown, it is not given here.

For the assay, the target named is T1, native human ESRRG protein …. Kind of assay: peptide microarray, Iteration 2; bound ESRRG detected with fluorescent anti-ESRRG mAb. Here is the method:
Screening was carried out typically by hybridization of the protein (1 μg/mL) against the array for 1 h at 4° C.; detection of bound protein was carried out using a fluorescently labeled anti-ESRRG mAb. (Direct labeling of ESRRG and alternative detection strategies are equally valid).
Iterative sequence expansion and arraying of 10 highest binding ligands to ESRRG from Iteration 1 was carried out and the new peptide sequences were synthesized on an array and screened against the protein, as described above. In this step, the central 2 amino acids (core) in peptide sequences were maintained unchanged while outlying amino acids (2, 3, 6, and 7) were permuted (using Tier 1 and Tier 3 substitutions) in a ‘cipher’ or ‘combination’ lock approach.
Regarding B1, the “Sample B (Probe) Signal” value was 2460 fluorescence intensity units and the “log2 (Sample B/Sample A)” value is 3.55.
On the same counts, the results for B2 are 2300 fluorescence intensity units and 3.41.
Taken in the same sequence, the figures for B3 were 5440 fluorescence intensity units and 3.32.
Taken in the same sequence, the figures for B4 were 7240 fluorescence intensity units and 6.47.
With B5, the “Sample B (Probe) Signal” value was 4800 fluorescence intensity units and the “log2 (Sample B/Sample A)” value was 4.9.
Taken in the same sequence, the figures for B6 were 1300 fluorescence intensity units and 2.97.
For B7, the “Sample B (Probe) Signal” value was 4370 fluorescence intensity units and the “log2 (Sample B/Sample A)” value stood at 4.45.
Taken in the same sequence, the figures for B8 were 5020 fluorescence intensity units and 4.08.
With B9, the “Sample B (Probe) Signal” value was 2340 fluorescence intensity units and the “log2 (Sample B/Sample A)” value was determined as 3.69.
Taken in the same sequence, the figures for B10 were 2860 fluorescence intensity units and 3.97.
On the same counts, the results for B11 are 13800 fluorescence intensity units and 4.88.
With B12, the “Sample B (Probe) Signal” value was 2420 fluorescence intensity units and the “log2 (Sample B/Sample A)” value amounted to 3.47.
For the molecule B13, the “Sample B (Probe) Signal” value is 1750 fluorescence intensity units and the “log2 (Sample B/Sample A)” value was 3.25.
Consider B14, for which the “Sample B (Probe) Signal” value is 2200 fluorescence intensity units and the “log2 (Sample B/Sample A)” value amounted to 2.91.
On the same counts, the results for B15 are 1340 fluorescence intensity units and 2.76.
On the same counts, the results for B16 are 1250 fluorescence intensity units and 2.82.
On the same counts, the results for B17 are 19000 fluorescence intensity units and 4.56.
As to B18, the “Sample B (Probe) Signal” value was 5590 fluorescence intensity units and the “log2 (Sample B/Sample A)” value amounted to 4.27.
Taken in the same sequence, the figures for B19 were 2780 fluorescence intensity units and 3.32.
On to B20, for which the “Sample B (Probe) Signal” value is 2240 fluorescence intensity units and the “log2 (Sample B/Sample A)” value amounted to 3.84.
